From paper PMC3997432, “A Truncated Form of Rod Photoreceptor PDE6 β-Subunit Causes Autosomal Dominant Congenital Stationary Night Blindness by Interfering with the Inhibitory Activity of the γ-Subunit” (PLoS ONE, 2014)
No end group written: not given here. *: point of attachment. BC = 3-(bromoacetyl)-7-diethyl-aminocoumarin, CCN(CC)c1ccc2cc(C(=O)C*)c(=O)oc2c1

Columns and labels:
[1] = target: T1, PDE6β1-313 (PDE6-specific N-terminal portion of the human rod cGMP phosphodiesterase type 6 β-subunit … (human, UniProt P35913-1 1-313)); assay: other fluorescence titration; CysBC-Pγ24-45 (50 nM) in 1 ml of 100 mM PBS buffer (pH 7.5), increasing concentrations of PDE6β1-313 added; excitation 445 nm, emission 490 nm; fit to a hyperbola; conditions: both partners purified
T1 construct: rod cGMP phosphodiesterase type 6 β-subunit (PDE6β), human, residues 1-313; contains the GAFa domain and a portion of the GAFb domain; amplified from a human retinal cDNA library; Cloned into pET15b with NdeI/BamHI; no removal of the tag is described; also called His6-tagged PDE6β1-313; truncated PDE6β

[2] = target: trypsin-activated bovine PDE6 (tPDE6), PDE6αβ catalytic subunits lacking the inhibitory Pγ subunits (bovine) (UniProt P11541)
Sequence of trypsin-activated bovine PDE6 (tPDE6), PDE6αβ catalytic subunits lacking the inhibitory Pγ subunits (bovine) (P11541 whole entry, chain 1 of 2): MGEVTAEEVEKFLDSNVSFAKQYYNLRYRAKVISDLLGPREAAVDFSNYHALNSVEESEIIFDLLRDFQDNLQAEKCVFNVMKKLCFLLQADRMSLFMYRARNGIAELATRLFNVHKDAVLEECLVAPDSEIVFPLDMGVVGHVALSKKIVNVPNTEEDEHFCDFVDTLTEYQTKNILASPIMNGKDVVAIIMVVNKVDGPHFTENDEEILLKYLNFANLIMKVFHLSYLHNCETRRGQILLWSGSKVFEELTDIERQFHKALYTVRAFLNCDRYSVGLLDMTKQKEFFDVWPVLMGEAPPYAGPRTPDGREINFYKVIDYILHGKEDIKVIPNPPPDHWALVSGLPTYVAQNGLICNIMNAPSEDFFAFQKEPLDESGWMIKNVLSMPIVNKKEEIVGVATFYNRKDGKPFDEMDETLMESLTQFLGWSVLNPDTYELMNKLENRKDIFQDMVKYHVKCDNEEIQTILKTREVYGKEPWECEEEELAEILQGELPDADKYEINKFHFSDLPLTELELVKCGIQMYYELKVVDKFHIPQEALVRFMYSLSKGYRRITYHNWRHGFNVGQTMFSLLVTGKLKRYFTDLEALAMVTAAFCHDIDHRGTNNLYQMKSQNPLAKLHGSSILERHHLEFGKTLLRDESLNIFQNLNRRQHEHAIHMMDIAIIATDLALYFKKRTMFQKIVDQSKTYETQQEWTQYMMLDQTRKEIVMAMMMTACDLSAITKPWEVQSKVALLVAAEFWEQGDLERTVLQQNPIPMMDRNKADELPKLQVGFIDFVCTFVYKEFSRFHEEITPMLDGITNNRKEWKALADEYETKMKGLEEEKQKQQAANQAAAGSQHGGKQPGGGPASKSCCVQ
Sequence of trypsin-activated bovine PDE6 (tPDE6), PDE6αβ catalytic subunits lacking the inhibitory Pγ subunits (bovine) (P23439 whole entry, chain 2 of 2, further chain): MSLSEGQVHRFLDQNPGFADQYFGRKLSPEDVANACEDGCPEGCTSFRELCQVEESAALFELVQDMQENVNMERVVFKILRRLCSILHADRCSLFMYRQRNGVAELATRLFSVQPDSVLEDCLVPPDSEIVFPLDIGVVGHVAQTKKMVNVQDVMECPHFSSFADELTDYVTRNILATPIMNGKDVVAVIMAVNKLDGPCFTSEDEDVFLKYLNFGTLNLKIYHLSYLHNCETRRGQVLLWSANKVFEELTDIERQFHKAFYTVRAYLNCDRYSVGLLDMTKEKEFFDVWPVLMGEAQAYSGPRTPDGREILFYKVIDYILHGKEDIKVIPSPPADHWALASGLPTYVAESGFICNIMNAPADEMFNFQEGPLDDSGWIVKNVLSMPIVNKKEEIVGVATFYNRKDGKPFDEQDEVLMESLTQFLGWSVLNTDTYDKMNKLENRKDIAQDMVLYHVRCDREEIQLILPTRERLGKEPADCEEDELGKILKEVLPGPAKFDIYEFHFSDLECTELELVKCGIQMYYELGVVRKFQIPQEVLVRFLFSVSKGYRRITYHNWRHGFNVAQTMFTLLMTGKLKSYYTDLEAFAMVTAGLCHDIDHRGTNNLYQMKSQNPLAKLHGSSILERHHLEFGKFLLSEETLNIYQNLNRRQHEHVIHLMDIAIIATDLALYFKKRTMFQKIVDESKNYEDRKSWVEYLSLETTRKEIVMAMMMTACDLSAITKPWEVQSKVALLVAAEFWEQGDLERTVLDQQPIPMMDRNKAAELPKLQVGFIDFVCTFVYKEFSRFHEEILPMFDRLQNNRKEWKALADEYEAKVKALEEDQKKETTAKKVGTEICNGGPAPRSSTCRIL

T1 sequence (P35913 1-313, stated change not applied): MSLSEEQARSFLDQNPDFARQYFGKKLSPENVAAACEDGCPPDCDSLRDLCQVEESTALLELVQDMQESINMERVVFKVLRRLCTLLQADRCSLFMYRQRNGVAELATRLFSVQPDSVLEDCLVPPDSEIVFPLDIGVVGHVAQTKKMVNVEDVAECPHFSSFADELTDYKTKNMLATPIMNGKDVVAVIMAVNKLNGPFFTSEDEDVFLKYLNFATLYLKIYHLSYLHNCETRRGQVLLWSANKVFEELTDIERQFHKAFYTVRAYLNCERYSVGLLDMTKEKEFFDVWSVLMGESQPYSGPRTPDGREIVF

| Kd [1] [nM] | IC50 of the inhibition of tPDE6 (50 pM) activity ([3H]cGMP hydrolysis) by increasing concentrations of Pγ, in the absence of PDE6β1-313 [2] [nM] | IC50 of the inhibition of tPDE6 (50 pM) activity ([3H]cGMP hydrolysis) by increasing concentrations of Pγ, in the presence of 2 µM PDE6β1-313 [2] [nM] | Binder |
| --- | --- | --- | --- |
| 320 | – | – | C(BC)RKGPPKFKQRQTRQFKSKPPKK (Cys added at the N-terminus of the peptide to carry the probe (Cys-Pγ24-45); also called fluorescently labeled Pγ24-45; polycationic region of Pγ; source: synthetic peptide) |
| – | 0.53 | 1.6 | Recombinant bovine rod Pγ-subunit (PDE6 inhibitory γ-subunit) (natural protein) MNLEPPKAEIRSATRVMGGPVTPRKGPPKFKQRQTRQFKSKPPKKGVQGFGDDIPGMEGLGTDITVICPWEAFNHLELHELAQYGII |
